# Results: patent US20100310509A1
# Biological target: OSMR:gp130 receptor complex on A375 melanoma cells (UniProt Q99650)
# Assay: cell-based or functional assay
# Chain of OSMR:gp130 receptor complex on A375 melanoma cells (Q99650 28-979 limits assumed, chain 1 of 2): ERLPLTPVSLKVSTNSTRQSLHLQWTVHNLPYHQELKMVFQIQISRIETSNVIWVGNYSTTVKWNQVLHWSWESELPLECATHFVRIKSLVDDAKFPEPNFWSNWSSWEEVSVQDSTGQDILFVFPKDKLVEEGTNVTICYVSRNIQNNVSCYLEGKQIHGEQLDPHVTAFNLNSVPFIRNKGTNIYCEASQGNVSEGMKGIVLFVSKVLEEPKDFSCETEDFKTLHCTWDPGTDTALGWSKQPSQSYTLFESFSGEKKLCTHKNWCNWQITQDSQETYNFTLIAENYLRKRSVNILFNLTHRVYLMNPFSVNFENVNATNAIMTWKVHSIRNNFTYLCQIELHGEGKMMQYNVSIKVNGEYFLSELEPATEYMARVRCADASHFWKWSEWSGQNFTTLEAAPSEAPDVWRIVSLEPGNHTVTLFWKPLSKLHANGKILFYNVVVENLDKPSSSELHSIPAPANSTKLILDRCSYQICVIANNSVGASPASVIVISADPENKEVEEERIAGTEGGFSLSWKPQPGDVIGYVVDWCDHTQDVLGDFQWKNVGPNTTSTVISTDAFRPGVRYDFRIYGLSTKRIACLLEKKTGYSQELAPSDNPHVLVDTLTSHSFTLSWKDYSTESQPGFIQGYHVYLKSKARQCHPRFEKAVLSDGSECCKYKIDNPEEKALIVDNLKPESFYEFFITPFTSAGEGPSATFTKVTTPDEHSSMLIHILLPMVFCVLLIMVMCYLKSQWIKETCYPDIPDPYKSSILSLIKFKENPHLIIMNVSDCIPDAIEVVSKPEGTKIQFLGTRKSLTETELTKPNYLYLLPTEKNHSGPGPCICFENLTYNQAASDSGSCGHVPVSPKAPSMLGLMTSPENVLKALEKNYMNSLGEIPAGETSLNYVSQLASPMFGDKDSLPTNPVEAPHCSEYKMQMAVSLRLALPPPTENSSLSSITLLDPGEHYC
# Chain of OSMR:gp130 receptor complex on A375 melanoma cells (P40189 23-918 limits assumed, chain 2 of 2, further chain): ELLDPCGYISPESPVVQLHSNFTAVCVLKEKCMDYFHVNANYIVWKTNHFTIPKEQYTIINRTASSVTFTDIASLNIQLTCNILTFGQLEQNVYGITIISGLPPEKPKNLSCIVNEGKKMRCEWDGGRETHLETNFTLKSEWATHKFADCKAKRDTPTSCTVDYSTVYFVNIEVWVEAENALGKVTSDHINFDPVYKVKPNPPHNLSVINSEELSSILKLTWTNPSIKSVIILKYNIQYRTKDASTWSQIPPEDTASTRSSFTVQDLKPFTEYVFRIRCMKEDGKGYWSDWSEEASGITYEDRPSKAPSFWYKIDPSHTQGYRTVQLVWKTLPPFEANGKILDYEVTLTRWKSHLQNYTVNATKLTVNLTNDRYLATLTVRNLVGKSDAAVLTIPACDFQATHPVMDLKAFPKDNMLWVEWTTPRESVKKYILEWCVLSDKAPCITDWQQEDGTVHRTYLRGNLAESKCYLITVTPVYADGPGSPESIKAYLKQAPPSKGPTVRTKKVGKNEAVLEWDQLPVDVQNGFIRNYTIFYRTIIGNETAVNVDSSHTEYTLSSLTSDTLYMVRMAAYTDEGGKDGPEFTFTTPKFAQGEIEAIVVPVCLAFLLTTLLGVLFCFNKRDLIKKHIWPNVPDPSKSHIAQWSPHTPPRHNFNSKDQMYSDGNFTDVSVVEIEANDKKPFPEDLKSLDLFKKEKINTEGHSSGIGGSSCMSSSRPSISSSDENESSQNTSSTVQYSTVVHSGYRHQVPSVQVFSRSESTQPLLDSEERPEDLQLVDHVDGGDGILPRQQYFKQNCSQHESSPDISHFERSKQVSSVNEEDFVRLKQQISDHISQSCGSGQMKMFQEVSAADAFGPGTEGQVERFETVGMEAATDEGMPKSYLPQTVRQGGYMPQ
substance,measurement,value
"OSM-WT ('AGA' modified human Oncostatin M, referred to as wild-type OSM) (from UniProt P13725 26-217) (ligand)",concentration that suppresses A375 melanoma cell proliferation by ~50%,20 ng/mL
same,concentration that suppresses A375 melanoma cell proliferation by ~90%,50 ng/mL
